Results on 76 variants are retold here after the RNAGym collection of RNA variant scans (doi:10.7554/elife.80360).

Sequences and labels used below:
B1: Hairpin Ribozyme (parent)
chain: GUCCUCUUUCACGUGCGCGUGAAAGAGAGAAGUGAACCAGAGAAACACACGUUGUGGUAUAUUACCUGGUA

The data set covers variants of B1. Description: self-cleavage, relative activity (ratio to wild type); higher = more cleavage; co-transcriptional.
With GUCCUCUUUCACGUGCGCCUGAAAGAGAGAAGUUAACCAGAGAAACACACGUUGUGGUAUAUUACCUGGUA, the self-cleavage is 1.45.

Consider GUCCUCUUUCACGUGCGCUUGAAAGAGAGAAGUGAACCAGAGAAACACACGUUGUGGUAUGUUACCUGGUA, for which the self-cleavage was 0.231.

In the case of GUCCUCUUUCACGUGCGCUUGAAAGAGAGAAGUGAACCAGAGAAACACACGUUGUGGUAUCUUACCUGGUA, the self-cleavage was 0.236.

As to GUCCUCUUUCACGUGCGCUUGAAAGAGAGAAGUGAACCAGAGAAACACAUGUUGUGGUAUAUUACCUGGUA, the self-cleavage is 0.33.

For the variant GUCCUCUUUCACGUGCGCUUGAAAGACAGAAGUGAACCAGAGAAACACACGUUGUGGUAUAUUACCUGGUA, the self-cleavage amounted to 0.318.

Take GUCCUCUUUCACGUGCGCUUGAAAGAUAGAAGUGAACCAGAGAAACACACGUUGUGGUAUAUUACCUGGUA: the self-cleavage came out at 0.262.

Turning to GUCCUCUUUCACGUGCGCCUGAAAGAGAGAAGUGAACCAGAGAAACACACGUUGUGGUAUAGUACCUGGUA, the self-cleavage was determined as 0.282.

With GUCCUCUUUCACGUGCGCCUGAAAGAGAGAAUUGAACCAGAGAAACACACGUUGUGGUAUAUUACCUGGUA, the self-cleavage was 0.173.

Take GUCCUCUUUCACGUGCGCCUGAAAGAGAGAAGUGAACCAGAGAAACACACGUUGUGGUAUAUUAUCUGGUA: the self-cleavage is 0.337.

As to GUCCUCUUUCACGUGCGCUUGAAAGAGAGAAGUGAAUCAGAGAAACACACGUUGUGGUAUAUUACCUGGUA, the self-cleavage amounted to 0.588.

GUCCUCUUUCACGUGCGCCUGAAAGAGAGAAGCGAACCAGAGAAACACACGUUGUGGUAUAUUACCUGGUA: the self-cleavage came to 0.173.

GUCCUCUUUCACGUGCGCCUGAAAGAGAGAAGAGAACCAGAGAAACACACGUUGUGGUAUAUUACCUGGUA: the self-cleavage turned out to be 0.125.

As for GUCCUCUUUCACGUGCGCCUGAAAGAGAGAAGUGAACCAGAGAAACACAGGUUGUGGUAUAUUACCUGGUA, the self-cleavage stood at 0.196.

Turning to GUCCUCUUUCACGUGCGCCUGAAAGAGAGAAGUGAACCAGAGAAACACAUGUUGUGGUAUAUUACCUGGUA, the self-cleavage came out at 0.397.

Turning to GUCCUCUUUCACGUGCGCUUGAAAGAGAGAAGUAAACCAGAGAAACACACGUUGUGGUAUAUUACCUGGUA, the self-cleavage is 1.19.

With GUCCUCUUUCACGUGCGCCUGAAAGAGAGAAGUGAACCACAGAAACACACGUUGUGGUAUAUUACCUGGUA, the self-cleavage was determined as 0.191.

With GUCCUCUUUCACGUGCGCCUGAAAGAGAGAAGUGAACCAGAGAAACACACCUUGUGGUAUAUUACCUGGUA, the self-cleavage is 0.775.

As to GUCCUCUUUCACGUGCGCCUGAAAGAGAGAAGUGAACCAGAGAAACACACUUUGUGGUAUAUUACCUGGUA, the self-cleavage is 0.973.

For GUCCUCUUUCACGUGCGCCUGAAAGAGAGAAGUGAACCAGAGAAACACACAUUGUGGUAUAUUACCUGGUA, the self-cleavage was 0.903.

In the case of GUCCUCUUUCACGUGCGCUUGAAAGAGAGAAGUGAACCAGAGAAACAAACGUUGUGGUAUAUUACCUGGUA, the self-cleavage is 0.135.

For GUCCUCUUUCACGUGCGCCUGAAAGAGAGAAGUGAACCAGAGAAACACACGUUGUGGUAUAUUACUUGGUA, the self-cleavage was determined as 0.528.

Regarding GUCCUCUUUCACGUGCGCCUGAAAGAGAGAAGUGAACCAGAGAAACACACGUUGUGGUAUAUUACAUGGUA, the self-cleavage amounted to 0.238.

GUCCUCUUUCACGUGCGCCUGAAAGAGAGAAGUGAAUCAGAGAAACACACGUUGUGGUAUAUUACCUGGUA: the self-cleavage came to 0.454.

Consider GUCCUCUUUCACGUGCGCCUGAAAGAGAGAAGUGAAGCAGAGAAACACACGUUGUGGUAUAUUACCUGGUA, for which the self-cleavage was determined as 0.356.

Take GUCCUCUUUCACGUGCGCUUGAAAGAGAGAAGUGAACCAGAGUAACACACGUUGUGGUAUAUUACCUGGUA: the self-cleavage came out at 0.134.

As to GUCCUCUUUCACGUGCGCUUGAAAGAGAGAAGUGAACCAGAGGAACACACGUUGUGGUAUAUUACCUGGUA, the self-cleavage worked out at 0.136.

On to GUCCUCUUUCACGUGCGCUUGACAGAGAGAAGUGAACCAGAGAAACACACGUUGUGGUAUAUUACCUGGUA, for which the self-cleavage is 0.666.

For GUCCUCUUUCACGUGCGCUUGAUAGAGAGAAGUGAACCAGAGAAACACACGUUGUGGUAUAUUACCUGGUA, the self-cleavage stood at 0.944.

With GUCCUCUUUCACGUGCGCUUGAAAGAGAGAAGUGAACCACAGAAACACACGUUGUGGUAUAUUACCUGGUA, the self-cleavage came to 0.11.

With GUCCUCUUUCACGUGCGCUUGAAAGAGAGAAGUGAACCAGAGAAAUACACGUUGUGGUAUAUUACCUGGUA, the self-cleavage amounted to 0.136.

Regarding GUCCUCUUUCACGUGCGCCUGAAACAGAGAAGUGAACCAGAGAAACACACGUUGUGGUAUAUUACCUGGUA, the self-cleavage was determined as 0.46.

For the variant GUCCUCUUUCACGUGCGCUUGAAAGAGAGAAGUGAACCAGAGAAACGCACGUUGUGGUAUAUUACCUGGUA, the self-cleavage stood at 0.24.

In the case of GUCCUCUUUCACGUGCGCUUGAAAGAGAGAAGUGAACCAGAGAAACCCACGUUGUGGUAUAUUACCUGGUA, the self-cleavage turned out to be 0.418.

Take GUCCUCUUUCACGUGCGCCUGAAAGAGAGAAGUGAACCAGAGAAACACACGUGGUGGUAUAUUACCUGGUA: the self-cleavage stood at 0.566.

For GUCCUCUUUCACGUGCGCUUGAAAGAGAGAAGUGAACCAGAGAAACACACGUUGUGGUAUAUUACCUGGUU, the self-cleavage was 0.738.

Take GUCCUCUUUCACGUGCGCUUGAAAGAGAGAAGUGAACCAGAGAAACACACGUUGUGGUAUAUUACCUGGUC: the self-cleavage was determined as 1.39.

Consider GUCCUCUUUCACGUGCGCCUGAAAGAGAGAAGUGAACCAGAGAAACACACGUUGGGGUAUAUUACCUGGUA, for which the self-cleavage was found to be 0.335.

On to GUCCUCUUUCACGUGCGCCUGAAAGAGAGAAGUGAACCAGAGAAACACACGUUGAGGUAUAUUACCUGGUA, for which the self-cleavage stood at 0.17.

As to GUCCUCUUUCACGUGCGCUUCAAAGAGAGAAGUGAACCAGAGAAACACACGUUGUGGUAUAUUACCUGGUA, the self-cleavage was 0.692.

As to GUCCUCUUUCACGUGCGCUUGAAAGAGAGAAGUGAACCAGAGAAACACACGUUGUGGUAUAUUUCCUGGUA, the self-cleavage turned out to be 0.217.

As for GUCCUCUUUCACGUGCGCUUGAAAGAGGGAAGUGAACCAGAGAAACACACGUUGUGGUAUAUUACCUGGUA, the self-cleavage was found to be 1.

Regarding GUCCUCUUUCACGUGCGCUUGAAAGAGAGAAGUGAACCAGAGAGACACACGUUGUGGUAUAUUACCUGGUA, the self-cleavage is 0.163.

For GUCCUCUUUCACGUGCGCCUGAAAGAGAGAAGUGAACCAGAGAAACACACGUUGUCGUAUAUUACCUGGUA, the self-cleavage was determined as 0.124.

Regarding GUCCUCUUUCACGUGCGCUUGAAAGAGACAAGUGAACCAGAGAAACACACGUUGUGGUAUAUUACCUGGUA, the self-cleavage came out at 0.0899.

For GUCCUCUUUCACGUGCGCCUGAAAGAGAGAAGUGAACCAGAGAAACACACGUUGUGGUAUAUUACCUUGUA, the self-cleavage came to 0.213.

Turning to GUCCUCUUUCACGUGCGCCUAAAAGAGAGAAGUGAACCAGAGAAACACACGUUGUGGUAUAUUACCUGGUA, the self-cleavage came to 0.657.

With GUCCUCUUUCACGUGCGCUUGAAAGAGAGAAGUGGACCAGAGAAACACACGUUGUGGUAUAUUACCUGGUA, the self-cleavage worked out at 1.06.

With GUCCUCUUUCACGUGCGCUUGAAAGAGAGAAGUGUACCAGAGAAACACACGUUGUGGUAUAUUACCUGGUA, the self-cleavage was found to be 0.626.

GUCCUCUUUCACGUGCGCCUGAAAGAGAGAAGUGAACCAGAGAAACACACGUUGUGUUAUAUUACCUGGUA: the self-cleavage was 0.275.

Regarding GUCCUCUUUCACGUGCGCCUGAAAGAGAGAAGUGAACCAGAGAAACACACGUUGUGCUAUAUUACCUGGUA, the self-cleavage turned out to be 0.25.

Take GUCCUCUUUCACGUGCGCCUGAAAGAGAGAAGUGAACCAGAGAAACACACGUUGUGGUAUAUUACCUGGCA: the self-cleavage was determined as 0.879.

As for GUCCUCUUUCACGUGCGCCUGAAAGAGAGAAGUGAACCAGAGAAACACACGUUGUGGUAUAUUACCUGGGA, the self-cleavage amounted to 0.695.

Take GUCCUCUUUCACGUGCGCCUGAAAGAGAGAAGUGAACGAGAGAAACACACGUUGUGGUAUAUUACCUGGUA: the self-cleavage worked out at 0.142.

As to GUCCUCUUUCACGUGCGCUUGAAAGAGAGAAGUGAACCAGAGAAACACCCGUUGUGGUAUAUUACCUGGUA, the self-cleavage is 0.18.

Take GUCCUCUUUCACGUGCGCUUGAAAGAGAGAAGUGAACCAGAGAAACACGCGUUGUGGUAUAUUACCUGGUA: the self-cleavage came out at 0.545.

In the case of GUCCUCUUUCACGUGCGCUUGAAAGAGAGAAGUGAACCAGAGAAUCACACGUUGUGGUAUAUUACCUGGUA, the self-cleavage stood at 0.145.

Take GUCCUCUUUCACGUGCGCUUGAAAGAGAGAAGUGAACCAGAGAAGCACACGUUGUGGUAUAUUACCUGGUA: the self-cleavage is 0.228.

On to GUCCUCUUUCACGUGCGCUUGAAAGAGAGAAGUGAACCAGAGAACCACACGUUGUGGUAUAUUACCUGGUA, for which the self-cleavage was 0.292.

In the case of GUCCUCUUUCACGUGCGCCUGAAAGAGAGAAGUGAACCAGAGAAACACACGUUAUGGUAUAUUACCUGGUA, the self-cleavage amounted to 0.432.

On to GUCCUCUUUCACGUGCGCCUGAAAGAGAUAAGUGAACCAGAGAAACACACGUUGUGGUAUAUUACCUGGUA, for which the self-cleavage was found to be 0.159.

Turning to GUCCUCUUUCACGUGCGCUUGAAAGAGAGAAGUGAACCAGAGAAACACACGUUGUGGUAUAUUACGUGGUA, the self-cleavage stood at 0.22.

On to GUCCUCUUUCACGUGCGCCUGAAAGAGAGAAGUGAACCAGAGAAACACACGCUGUGGUAUAUUACCUGGUA, for which the self-cleavage came out at 0.775.

For the variant GUCCUCUUUCACGUGCGCUUGAAAGAGAGAAGUGAACCAGCGAAACACACGUUGUGGUAUAUUACCUGGUA, the self-cleavage came to 0.899.

For GUCCUCUUUCACGUGCGCUUGAAAGAGAGAAGUGAACCAGGGAAACACACGUUGUGGUAUAUUACCUGGUA, the self-cleavage was 0.913.

With GUCCUCUUUCACGUGCGCCCGAAAGAGAGAAGUGAACCAGAGAAACACACGUUGUGGUAUAUUACCUGGUA, the self-cleavage came out at 0.809.

As to GUCCUCUUUCACGUGCGCCGGAAAGAGAGAAGUGAACCAGAGAAACACACGUUGUGGUAUAUUACCUGGUA, the self-cleavage amounted to 1.05.

For GUCCUCUUUCACGUGCGCCAGAAAGAGAGAAGUGAACCAGAGAAACACACGUUGUGGUAUAUUACCUGGUA, the self-cleavage was 0.965.

As for GUCCUCUUUCACGUGCGCUUGAAAAAGAGAAGUGAACCAGAGAAACACACGUUGUGGUAUAUUACCUGGUA, the self-cleavage was 0.33.

As for GUCCUCUUUCACGUGCGCUUGAAAUAGAGAAGUGAACCAGAGAAACACACGUUGUGGUAUAUUACCUGGUA, the self-cleavage stood at 0.548.

GUCCUCUUUCACGUGCGCUUGAAACAGAGAAGUGAACCAGAGAAACACACGUUGUGGUAUAUUACCUGGUA: the self-cleavage was determined as 0.537.

On to GUCCUCUUUCACGUGCGCCUGAAAGAGAGAAGUGAACCAGAGAAACACACGUUGUGGUAUAUUACCUGAUA, for which the self-cleavage stood at 0.403.

As for GUCCUCUUUCACGUGCGCCUGAAAGAGAGAAGUGAACCAGAGAAACACACGUUGUGGUAUAUUACCUGCUA, the self-cleavage stood at 0.369.

As for GUCCUCUUUCACGUGCGCUUGAAAGAGAGAAGUGAGCCAGAGAAACACACGUUGUGGUAUAUUACCUGGUA, the self-cleavage was 1.

Consider GUCCUCUUUCACGUGCGCUUGAAAGAGAGAAGUGACCCAGAGAAACACACGUUGUGGUAUAUUACCUGGUA, for which the self-cleavage turned out to be 0.554.

Consider GUCCUCUUUCACGUGCGCUUGAAAGAGAGAAGUGAUCCAGAGAAACACACGUUGUGGUAUAUUACCUGGUA, for which the self-cleavage stood at 0.628.

With GUCCUCUUUCACGUGCGCUUGAAAGAGAGACGUGAACCAGAGAAACACACGUUGUGGUAUAUUACCUGGUA, the self-cleavage is 0.0951.
